Reference: patent US20180312579A1 (Genentech, published 2018)

T1: mouse RSPO3 (mouse, UniProt Q2TJ95 22-277, limits assumed)
T1 sequence (looked up): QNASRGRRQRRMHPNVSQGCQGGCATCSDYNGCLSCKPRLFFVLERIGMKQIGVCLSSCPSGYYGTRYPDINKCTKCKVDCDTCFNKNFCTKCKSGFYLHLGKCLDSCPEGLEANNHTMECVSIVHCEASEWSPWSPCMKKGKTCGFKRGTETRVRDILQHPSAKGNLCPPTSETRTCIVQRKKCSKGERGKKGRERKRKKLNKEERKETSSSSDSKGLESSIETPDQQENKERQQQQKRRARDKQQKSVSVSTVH

T2: cynomolgus RSPO3 (cynomolgus, UniProt A0A2K5UTQ7 22-273)
T2 sequence: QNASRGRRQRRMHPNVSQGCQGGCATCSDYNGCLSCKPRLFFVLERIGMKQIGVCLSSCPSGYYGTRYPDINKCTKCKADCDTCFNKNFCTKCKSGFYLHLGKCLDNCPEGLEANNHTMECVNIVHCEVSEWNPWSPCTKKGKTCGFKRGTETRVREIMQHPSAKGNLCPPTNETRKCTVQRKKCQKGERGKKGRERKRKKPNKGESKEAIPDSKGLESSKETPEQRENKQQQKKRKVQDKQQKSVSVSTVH

T3: recombinant human RSPO3 (human, UniProt Q9BXY4 22-272)
T3 sequence: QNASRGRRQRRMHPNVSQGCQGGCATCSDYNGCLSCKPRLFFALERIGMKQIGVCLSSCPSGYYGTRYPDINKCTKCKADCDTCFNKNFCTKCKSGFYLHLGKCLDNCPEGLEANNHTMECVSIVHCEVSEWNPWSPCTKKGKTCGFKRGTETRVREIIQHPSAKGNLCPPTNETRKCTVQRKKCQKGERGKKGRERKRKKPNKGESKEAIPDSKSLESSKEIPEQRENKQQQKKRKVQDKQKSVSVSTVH

T4: human RSPO3 with C-terminal HA tag, stably expressed in 293 cells (human, UniProt Q9BXY4 22-272)
T4 construct: Whole open reading frame expressed in HEK-293 cells (high, medium, low); FFPE pellets; also called hRSPO3; RSPO3 Hi
T4 sequence: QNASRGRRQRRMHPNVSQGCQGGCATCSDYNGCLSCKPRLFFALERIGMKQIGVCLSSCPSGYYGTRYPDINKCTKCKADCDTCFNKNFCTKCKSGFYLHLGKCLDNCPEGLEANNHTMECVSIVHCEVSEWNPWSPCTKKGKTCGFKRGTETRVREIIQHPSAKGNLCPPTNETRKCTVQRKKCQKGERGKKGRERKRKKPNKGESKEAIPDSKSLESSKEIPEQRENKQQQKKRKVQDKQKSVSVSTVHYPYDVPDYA

T5: FLAG-tagged human RSPO3 (Genentech) (human, UniProt Q9BXY4 22-272)
T5 construct: also called hRSPO3; RSPO3 coated plates; not shown: FLAG tag
T5 sequence: T3 sequence

B1: 6E9 (antibody, V domains shown)
VH: QVQLKESGPGLVQPSQSLSITCTVSGFSLTSYGVHWVRQSPGKGLEWLGVIWSGGSTDYNAAFISRLSISKDNSKSQVFFKMNSLQANDTAIYYCARNDGYYYFDYWGQGTTLTVSS
VL: DIKMTQSTSSLSASLGDRVTISCRASQDISNYLNWYQQKPDGTVKLLIYYTSRLHSGVPSRFSGSGSGTDYSLTISNLEQEDIATYFCQQGDTLPPAFGGGTKLEIK
notes: also called monoclonal antibody 6E9
B2: 4H1 (antibody, V domains shown)
VH: EVKLVESGGGFVKPGGSLKLSCAASGFTFSNFAMSWVRQSPEKRLEWVAEINNGGNYAYYQDTVTGRFTISRDNAKNTLYLEMSSLRSEDTAMYFCAREDYVNYEAYFAYWGQGTTLTVSS
VL: SIVMTQTPLSLPVSLGDQASISCRSSQSIVHSNGNTYLEWYLQKPGQSPKLLIYRISNRFSGVPDRFSGSGSGTDFTLKISRVEAEDLGVYYCFQGSHVPYTFGGGTKLEIK
notes: Hybridoma-derived monoclonal (mice or hamsters immunized with hRSPO2 and/or hRSPO3), cloned, expressed and purified; also called monoclonal antibody 4H1
B3: 5D6 (antibody, V domains shown)
VH: EVQLQESGPSLVKPSQTLSLTCSVTGDSITSGYWNWIRKFPGNKFEYMGYISYSGKTYQNPSLKSRISITRDTSKNQYHLQLNSVTTEDTATYYCATYYGYGGPWFAYWGQGTLVTVSA
VL: DIVLTQSPSSMYASLGERVTITCKASQDIDSYLSWFQQKPGKSPKTLIYLTNRLVDGVPSRFSGSGSGQDYSLTISSLEYEDMGIYYCLHYDEFPLTFGAGTKLEIK
notes: Murine; also called monoclonal antibody 5D6; mu5D6
B4: chimeric 5D6 (antibody, V domains shown)
VH: B3 VH
VL: B3 VL
notes: also called 5D6 chimera

What was measured:
mouse RSPO2 = mouse RSPO2 (mouse, UniProt Q8BFU0 22-205, limits assumed); assay: cell-based or functional assay
cynomolgus RSPO2 = cynomolgus RSPO2 (cynomolgus, UniProt G7PCH9 22-243); assay: cell-based or functional assay
recombinant human RSPO2 = recombinant human RSPO2 (human, UniProt Q6UXX9 22-243); assay: cell-based or functional assay
mouse RSPO3 [1] = target: T1, mouse RSPO3; assay: cell-based or functional assay
cynomolgus RSPO3 [2] = target: T2, cynomolgus RSPO3; assay: cell-based or functional assay
recombinant human RSPO3 [3] = target: T3, recombinant human RSPO3; assay: cell-based or functional assay
[4] = target: T4, human RSPO3 with C-terminal HA tag, …; assay: IHC, FFPE 293 cell pellet, RSPO3 Hi
[5] = target: T6, human RSPO1 with C-terminal HA tag, stably expressed in 293 cells (human, UniProt Q2MKA7 21-263); assay: IHC, FFPE 293 cell pellet, RSPO1 Hi; - = not significant staining
T6 construct: also called hRSPO1; RSPO1 Hi

[6] = target: T5, FLAG-tagged human RSPO3 (Genentech); assay: competitive binding ELISA: titrated against biotinylated RNF43-Flag (RNF43-ECD) binding to plate-coated hRSPO3; signal = bound RNF43, normalized OD
[7] = target: T4, human RSPO3 with C-terminal HA tag, …; assay: IHC, FFPE 293 cell pellet, RSPO3 Low
[8] = target: T5, FLAG-tagged human RSPO3 (Genentech); assay: competitive binding ELISA: antibody titrated against LGR4-Fc (LGR4-ECD) binding to plate-coated hRSPO3; signal = bound LGR4-Fc, OD(450/630)/OD no antibody
Method: To measure the activity of anti-RSPO antibodies in blocking the binding of LGR4 and -5 ECDs to RSPOs, MaxiSorp 384-well microwell plates (Thermo Scientific Nunc, Roskilde, Denmark) were coated with 25 ul/well of 0.5 μg/ml hRSPO2 or hRSPO3 (Genentech) in 50 mM carbonate buffer, pH 9.6, overnight at 4° C. Plates were blocked with at 80 ul/well of 0.5% bovine serum albumin, 15 parts per million Proclin 300 in phosphate buffered saline (PBS), pH 7.4, for 1 hour. Serially diluted anti-RSPO antibodies ([…] in […] serial dilution plus buffer blank) containing 0.1 μg/ml LGR4-Fc or 0.015 μg/ml LGR5-Fc in assay buffer (0.5% BSA, 0.05% polysorbate 20, 15 parts per million Proclin 300 in PBS) were added to the plates at 25 ul/well. After a 2-hour incubation, LGR4-Fc and LGR5-Fc bound to the plates were detected using peroxidase labeled goat F(ab′)2 anti-human Fc (Jackson ImmunoResearch, West Grove, Pa.). After a 1 hour incubation, the substrate 3,3′,5,5′-tetramethyl benzidine (Moss Inc., Pasadena, Md.) was added to the plates and the reaction was stopped by adding 1 M phosphoric acid. Plates were washed with PBS, pH 7.4, containing 0.05% tween 20, between steps and all the incubation steps following the coating step were performed at room temperature on an orbital shaker. Absorbance was read at 450 nm on a multiskan Ascent reader (Thermo Scientific, Hudson, N.H.).

[9] = target: T7, human RSPO4 with C-terminal HA tag, stably expressed in 293 cells (human, UniProt Q2I0M5 20-234); assay: IHC, FFPE 293 cell pellet, RSPO4 Hi; - = not significant staining
T7 construct: also called hRSPO4; RSPO4 Hi

[10] = target: T4, human RSPO3 with C-terminal HA tag, …; assay: IHC, FFPE 293 cell pellet, RSPO3 Med
mouse RSPO3 [11] = target: T1, mouse RSPO3; assay: SPR, BIAcore T200, murine RSPO3 immobilized, antibody injected
Method: (§1) The binding affinity of the antibodies in this section was determined by BIAcore™ T200 Format. Briefly, BIAcore™ research grade CMS chips were activated with 1-ethyl-3-(3-dimethylaminopropyl) carbodiimide (EDC) and N-hydroxysuccinimide (NETS) reagents according to the supplier's instructions. huRSPO3 was immobilized to achieve approximately 50 response units (RU) in each flow cell. Unreacted coupling groups were blocked with 1M ethanolamine. For kinetics measurements, Four-fold serial dilutions of variant antibody was injected in HBS-P buffer (0.01M HEPES pH7.4, 0.15M NaCl, 0.005% surfactant P20) at 25° C. with a flow rate of 30 μl/min. Association rates (kon) and dissociation rates (koff) were calculated using a 1:1 Langmuir binding model (BIAcore™ T200 Evaluation Software version 2.0). The equilibrium dissociation constant (Kd) was calculated as the ratio koff/kon.
(§2) The hu5D6v4.1 and the chimeric 5D6 were tested for their ability to bind cyno and mouse RSPO3 as described above except that cyno or murine RSPO3 replaced huRSPO3 in the binding assay. Binding properties for the humanized antibodies are shown below in Table 5.

recombinant human RSPO3 [12] = target: T3, recombinant human RSPO3; assay: SPR, BIAcore T200, huRSPO3 immobilized, antibody injected
Method: as §1

cynomolgus RSPO3 [13] = target: T2, cynomolgus RSPO3; assay: SPR, BIAcore T200, cyno RSPO3 immobilized, antibody injected
Method: as §1, §2

T7 sequence (Q2I0M5 other isoform, or with tags, fused parts or gaps limits assumed): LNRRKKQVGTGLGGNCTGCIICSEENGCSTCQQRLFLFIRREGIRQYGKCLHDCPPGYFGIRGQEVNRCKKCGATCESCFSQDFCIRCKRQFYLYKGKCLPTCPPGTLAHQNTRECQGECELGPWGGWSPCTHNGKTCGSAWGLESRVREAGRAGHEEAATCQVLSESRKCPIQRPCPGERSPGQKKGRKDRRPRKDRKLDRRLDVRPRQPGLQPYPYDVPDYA
Sequence of mouse RSPO2 (Q8BFU0 22-205 limits assumed): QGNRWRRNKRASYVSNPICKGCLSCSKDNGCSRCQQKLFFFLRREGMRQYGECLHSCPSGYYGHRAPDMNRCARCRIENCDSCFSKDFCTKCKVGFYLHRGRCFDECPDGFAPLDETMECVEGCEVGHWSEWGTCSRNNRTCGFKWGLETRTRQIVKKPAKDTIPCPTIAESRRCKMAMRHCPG
Sequence of recombinant human RSPO2 (Q6UXX9 22-243): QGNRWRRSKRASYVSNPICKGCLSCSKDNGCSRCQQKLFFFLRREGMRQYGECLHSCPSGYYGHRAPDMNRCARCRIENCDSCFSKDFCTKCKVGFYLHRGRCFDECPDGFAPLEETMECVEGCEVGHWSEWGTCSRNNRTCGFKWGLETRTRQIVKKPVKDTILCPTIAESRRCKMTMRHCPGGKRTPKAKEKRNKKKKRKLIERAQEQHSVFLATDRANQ
Sequence of cynomolgus RSPO2 (G7PCH9 entry or part of it): as the sequence (Q6UXX9 22-243) above, with V160A, L165P, T178A counted along it
T6 sequence (Q2MKA7 other isoform, or with tags, fused parts or gaps limits assumed): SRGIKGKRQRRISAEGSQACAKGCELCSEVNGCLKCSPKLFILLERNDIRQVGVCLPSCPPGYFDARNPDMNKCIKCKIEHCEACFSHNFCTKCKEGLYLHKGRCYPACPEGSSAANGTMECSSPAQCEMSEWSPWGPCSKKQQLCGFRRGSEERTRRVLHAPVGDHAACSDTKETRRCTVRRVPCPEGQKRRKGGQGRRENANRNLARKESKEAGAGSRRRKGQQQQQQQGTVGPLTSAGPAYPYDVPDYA

Binder	IC50, WNT luciferase reporter, bivalent antibody (mouse RSPO2)	IC50, WNT luciferase reporter, bivalent antibody (cynomolgus RSPO2)	IC50, WNT luciferase reporter, bivalent antibody (recombinant human RSPO2)	IC50, WNT luciferase reporter, bivalent antibody (mouse RSPO3 [1])	IC50, WNT luciferase reporter, bivalent antibody (cynomolgus RSPO3 [2])	IC50, WNT luciferase reporter, bivalent antibody (recombinant human RSPO3 [3])	percentage of cells staining [4]	binding result [5]	IC50 (read off the curve) [6]	percentage of cells staining [7]	IC50 (read off the curve) [8]	binding result [9]	percentage of cells staining [10]	also measured
B1	> 500 nM	> 500 nM	> 500 nM	140 nM	6.5 nM	5.6 nM	> 95%	no binding	~0.08 µg/mL	50%	~0.1 µg/mL	no binding	70%	
B2	> 500 nM	2.8 nM	6.4 nM	0.69 nM	0.29 nM	0.8 nM	90%	no binding	~0.08 µg/mL	30%	~0.1 µg/mL	no binding	60%	
B3	> 500 nM	> 500 nM	> 500 nM	0.001 nM	0.0003 nM	0.0003 nM	> 95%	no binding	~0.1 µg/mL	30%	~0.1 µg/mL	no binding	70%	
B4														Kd (mouse RSPO3 [11]): 0.0578 nM; koff (mouse RSPO3 [11]): 0.000237 s⁻¹; kon (mouse RSPO3 [11]): 4.1e+06 M⁻¹ s⁻¹; Kd (recombinant human RSPO3 [12]): 0.0331 nM; koff (recombinant human RSPO3 [12]): 0.000116 s⁻¹; kon (recombinant human RSPO3 [12]): 3.51e+06 M⁻¹ s⁻¹; Kd (cynomolgus RSPO3 [13]): 0.0453 nM; koff (cynomolgus RSPO3 [13]): 0.000224 s⁻¹; kon (cynomolgus RSPO3 [13]): 4.96e+06 M⁻¹ s⁻¹
